# Tested on: Escherichia coli TOP10
# Experiment: shrunken log2 fold change of peptide-encoding DNA abundance (4.5 h post-induction vs induction); higher = less antimicrobial activity (less host growth inhibition)
# Settings: time post-induction: 4.5 h; library: site-saturation at positions 5, 18, 19, 20
# 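Also: peptides expressed intracellularly from a pBAD plasmid library in pooled LB shake-flask culture, induced with 0.3% L-arabinose, DNA abundance read by NGS, three biological replicates, DESeq2 with apeglm shrinkage.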
row,Sequence,shrunken log2 fold change
1,RRIRQRPPRLPRPRPRPYRVPRP,-0.00926
2,RRIRWRPPRLPRPRPRPVIRPRP,0.0511
3,RRIRSRPPRLPRPRPRPHNTPRP,-0.337
4,RRIRTRPPRLPRPRPRPSPLPRP,-0.335
5,RRIRRRPPRLPRPRPRPAHTPRP,0.448
6,RRIRPRPPRLPRPRPRPMWYPRP,-0.111
7,RRIRLRPPRLPRPRPRPHLGPRP,-0.105
8,RRIRYRPPRLPRPRPRPFIIPRP,-1.23
9,RRIRSRPPRLPRPRPRPNMNPRP,-0.573
10,RRIRFRPPRLPRPRPRPHYYPRP,-0.524
11,RRIRPRPPRLPRPRPRPTWDPRP,0.42
12,RRIRERPPRLPRPRPRPMLDPRP,0.0349
13,RRIRTRPPRLPRPRPRPYGAPRP,-0.0628
14,RRIRQRPPRLPRPRPRPFWGPRP,-0.0312
15,RRIRRRPPRLPRPRPRPRPVPRP,0.882
16,RRIRYRPPRLPRPRPRPNQYPRP,-1.18
17,RRIRQRPPRLPRPRPRPGITPRP,-0.103
18,RRIRMRPPRLPRPRPRPKPCPRP,0.366
19,RRIRCRPPRLPRPRPRPHSQPRP,-0.0293
20,RRIRLRPPRLPRPRPRPYIVPRP,-0.0573
21,RRIRSRPPRLPRPRPRPAQAPRP,0.15
22,RRIRTRPPRLPRPRPRPQQHPRP,-0.37
23,RRIRHRPPRLPRPRPRPQNGPRP,-0.535
24,RRIRYRPPRLPRPRPRPVDGPRP,-0.0183
25,RRIRPRPPRLPRPRPRPDGIPRP,0.0121

row,Sequence,shrunken log2 fold change
1,RRIRPRPPRLPRPRPRPFIDPRP,-0.304
2,RRIRHRPPRLPRPRPRPLHVPRP,0.146
3,RRIRCRPPRLPRPRPRPKMCPRP,-0.164
4,RRIRIRPPRLPRPRPRPNTCPRP,-0.85
5,RRIRDRPPRLPRPRPRPWSGPRP,-0.0455
6,RRIRFRPPRLPRPRPRPAMTPRP,0.00388
7,RRIRYRPPRLPRPRPRPDLCPRP,0.0404
8,RRIRERPPRLPRPRPRPNETPRP,-0.0321
9,RRIRRRPPRLPRPRPRPQCQPRP,0.0393
10,RRIRLRPPRLPRPRPRPYTFPRP,-0.00482
11,RRIRPRPPRLPRPRPRPRATPRP,0.261
12,RRIRFRPPRLPRPRPRPWVNPRP,-0.753
13,RRIRARPPRLPRPRPRPFWTPRP,0.29
14,RRIRFRPPRLPRPRPRPQLPPRP,-0.0654
15,RRIRYRPPRLPRPRPRPVLCPRP,-0.272
16,RRIRSRPPRLPRPRPRPLWDPRP,-0.134
17,RRIRWRPPRLPRPRPRPYRWPRP,-0.0731
18,RRIRRRPPRLPRPRPRPNQYPRP,-0.506
19,RRIRDRPPRLPRPRPRPELPPRP,0.302
20,RRIRCRPPRLPRPRPRPIQRPRP,0.0673
21,RRIRWRPPRLPRPRPRPYQVPRP,-0.268
22,RRIRPRPPRLPRPRPRPKQMPRP,0.268
23,RRIRMRPPRLPRPRPRPVTTPRP,0.107
24,RRIRLRPPRLPRPRPRPQCTPRP,0.0199
25,RRIRCRPPRLPRPRPRPECCPRP,0.401

row,Sequence,shrunken log2 fold change
1,RRIRDRPPRLPRPRPRPVRWPRP,1.2
2,RRIRNRPPRLPRPRPRPGQDPRP,-0.0269
3,RRIRFRPPRLPRPRPRPSSCPRP,-0.183
4,RRIRKRPPRLPRPRPRPFDQPRP,-0.0318
5,RRIRMRPPRLPRPRPRPSYDPRP,0.26
6,RRIRMRPPRLPRPRPRPFPHPRP,-0.0309
7,RRIRGRPPRLPRPRPRPSFFPRP,0.202
8,RRIRRRPPRLPRPRPRPLRNPRP,0.94
9,RRIRQRPPRLPRPRPRPKRTPRP,0.00512
10,RRIRIRPPRLPRPRPRPSHEPRP,-0.159
11,RRIRNRPPRLPRPRPRPDKGPRP,0.00408
12,RRIRPRPPRLPRPRPRPPCIPRP,0.00615
13,RRIRCRPPRLPRPRPRPWEVPRP,0.431
14,RRIRRRPPRLPRPRPRPYMTPRP,-0.0329
15,RRIRGRPPRLPRPRPRPMLLPRP,0.548
16,RRIRMRPPRLPRPRPRPWQHPRP,0.0948
17,RRIRPRPPRLPRPRPRPRGMPRP,0.137
18,RRIRTRPPRLPRPRPRPNYFPRP,-0.062
19,RRIRQRPPRLPRPRPRPCMYPRP,-0.166
20,RRIRPRPPRLPRPRPRPCQDPRP,-0.006
21,RRIRHRPPRLPRPRPRPEFGPRP,0.308
22,RRIRARPPRLPRPRPRPMVWPRP,1.07
23,RRIRTRPPRLPRPRPRPSMKPRP,0.00896
24,RRIRVRPPRLPRPRPRPKAAPRP,0.1
25,RRIRARPPRLPRPRPRPYNFPRP,-0.192

row,Sequence,shrunken log2 fold change
1,RRIRSRPPRLPRPRPRPPMHPRP,0.25
2,RRIRKRPPRLPRPRPRPAGFPRP,0.0388
3,RRIRNRPPRLPRPRPRPCTWPRP,0.0117
4,RRIRERPPRLPRPRPRPCARPRP,0.0326
5,RRIRRRPPRLPRPRPRPYSFPRP,-0.529
6,RRIRNRPPRLPRPRPRPMKGPRP,-0.0787
7,RRIRERPPRLPRPRPRPCAGPRP,-0.0261
8,RRIRLRPPRLPRPRPRPRKPPRP,0.751
9,RRIRERPPRLPRPRPRPAHVPRP,-0.0768
10,RRIRRRPPRLPRPRPRPGNPPRP,0.608
11,RRIRFRPPRLPRPRPRPWCRPRP,-0.172
12,RRIRCRPPRLPRPRPRPYYIPRP,-0.564
13,RRIRARPPRLPRPRPRPYVKPRP,-0.539
14,RRIRMRPPRLPRPRPRPGDEPRP,0.818
15,RRIRIRPPRLPRPRPRPFAHPRP,-0.241
16,RRIRHRPPRLPRPRPRPCFQPRP,-0.558
17,RRIRVRPPRLPRPRPRPPYMPRP,-0.592
18,RRIRVRPPRLPRPRPRPIGHPRP,-0.426
19,RRIRHRPPRLPRPRPRPPWGPRP,0.347
20,RRIRHRPPRLPRPRPRPWPVPRP,0.155
21,RRIRFRPPRLPRPRPRPHYIPRP,-0.0793
22,RRIRVRPPRLPRPRPRPQPCPRP,-0.0059
23,RRIRMRPPRLPRPRPRPGVNPRP,-0.0818
24,RRIRWRPPRLPRPRPRPNWVPRP,0.0816
25,RRIRSRPPRLPRPRPRPQCEPRP,0.00747

row,Sequence,shrunken log2 fold change
1,RRIRDRPPRLPRPRPRPCSSPRP,0.187
2,RRIRIRPPRLPRPRPRPQGMPRP,-0.501
3,RRIRCRPPRLPRPRPRPREHPRP,0.161
4,RRIRDRPPRLPRPRPRPLWKPRP,0.0179
5,RRIRDRPPRLPRPRPRPLSPPRP,-0.0511
6,RRIRARPPRLPRPRPRPEHAPRP,0.564
7,RRIRFRPPRLPRPRPRPSWVPRP,-0.393
8,RRIRNRPPRLPRPRPRPMRYPRP,-0.154
9,RRIRQRPPRLPRPRPRPLYVPRP,-0.307
10,RRIRFRPPRLPRPRPRPTVRPRP,0.0843
11,RRIRCRPPRLPRPRPRPRVYPRP,-0.217
12,RRIRWRPPRLPRPRPRPLTWPRP,0.302
13,RRIRPRPPRLPRPRPRPYQVPRP,-0.203
14,RRIRFRPPRLPRPRPRPHVAPRP,0.119
15,RRIRARPPRLPRPRPRPMTPPRP,0.913
16,RRIRFRPPRLPRPRPRPRPAPRP,0.807
17,RRIRWRPPRLPRPRPRPIWNPRP,-0.114
18,RRIRMRPPRLPRPRPRPAHKPRP,0.534
19,RRIRARPPRLPRPRPRPQVPPRP,0.117
20,RRIRARPPRLPRPRPRPGCKPRP,0.321
21,RRIRRRPPRLPRPRPRPLFVPRP,-0.0826
22,RRIRIRPPRLPRPRPRPYAMPRP,-0.411
23,RRIRARPPRLPRPRPRPFPFPRP,-0.112
24,RRIRPRPPRLPRPRPRPPSSPRP,-0.207
25,RRIRARPPRLPRPRPRPPWTPRP,0.385

# From the supplement of paper PMC9112550, “Optimization of the antimicrobial peptide Bac7 by deep mutational scanning” (BMC Biology, 2022)
